B1: HDV Ribozyme (parent)
chain: GGCCGGCAUGGUCCCAGCCUCCUCGCUGGCGCCGGCUGGGCAACAUUCCGAGGGGACCGUCCCCUCGGUAAUGGCGAAUGGGACCCA

Variants of: B1
Experiment: self-cleavage, relative activity (ratio to wild type); higher = more cleavage; co-transcriptional

Q: For C14G U20C, which self-cleavage is on record?
A: 0.0554

Q: Which self-cleavage does the source give for C3G U72A here?
A: 0.237

Q: Which self-cleavage does the source give for U65A A77C here?
A: 0.277

Q: Which self-cleavage does the source give for U60G U72G here?
A: 0.646

Q: For C21G G68C, which self-cleavage is on record?
A: 0.0554

Q: For G38U G59U, which self-cleavage is on record?
A: 0.284

Q: For G80A A83G, which self-cleavage is on record?
A: 0.396

Q: With C44A G74A as the variant, how does the self-cleavage read?
A: 0.381

Q: For U37G A45G, which self-cleavage is on record?
A: 0.0692

Q: Which self-cleavage does the source give for C48A C66G here?
A: 0.831

Q: With U20G U37A as the variant, how does the self-cleavage read?
A: 0

Q: For C58U G59U, which self-cleavage is on record?
A: 1.05

Q: For G55A G80A, which self-cleavage is on record?
A: 0.369

Q: For C24U U60G, which self-cleavage is on record?
A: 0.573

Q: With G31A C44A as the variant, how does the self-cleavage read?
A: 0.192

Q: For G39A G68A, which self-cleavage is on record?
A: 0.415

Q: With U69G A71C as the variant, how does the self-cleavage read?
A: 0.575

Q: With A51C G74U as the variant, how does the self-cleavage read?
A: 0.383

Q: With C32G A77U as the variant, how does the self-cleavage read?
A: 0.123

Q: For G31C G73U, which self-cleavage is on record?
A: 0.0779

Q: Which self-cleavage does the source give for U27G U47A here?
A: 0.697

Q: With U37G A43G as the variant, how does the self-cleavage read?
A: 0

Q: Which self-cleavage does the source give for U23C G76C here?
A: 1.05

Q: Which self-cleavage does the source give for C33G G53U here?
A: 0.185

Q: Which self-cleavage does the source give for U27G G40A here?
A: 0.889

Q: For C48A G80C, which self-cleavage is on record?
A: 0.169

Q: For A42G G59C, which self-cleavage is on record?
A: 0.703

Q: For C4G G68A, which self-cleavage is on record?
A: 0.309

Q: With G1C U37C as the variant, how does the self-cleavage read?
A: 0.128

Q: With C62U U72A as the variant, how does the self-cleavage read?
A: 0.441

Q: Which self-cleavage does the source give for G5U G40C here?
A: 0.115

Q: For C22A A77C, which self-cleavage is on record?
A: 0.0378

Q: Which self-cleavage does the source give for C61G G76C here?
A: 0.967

Q: With U20G U79G as the variant, how does the self-cleavage read?
A: 0.208

Q: Which self-cleavage does the source give for G35U C64A here?
A: 0.351

Q: Which self-cleavage does the source give for U20A here?
A: 0.0723

Q: For C18G U60G, which self-cleavage is on record?
A: 0.0791

Q: For U20G C85U, which self-cleavage is on record?
A: 0.0554

Q: Which self-cleavage does the source give for G31A U46G here?
A: 0.0852

Q: Which self-cleavage does the source give for C62U C63A here?
A: 0.927

Q: For C62U G81C, which self-cleavage is on record?
A: 0.215

Q: For A43U G52A, which self-cleavage is on record?
A: 0.561

Q: With A45C C58G as the variant, how does the self-cleavage read?
A: 0.724

Q: With G55A U69G as the variant, how does the self-cleavage read?
A: 0.942

Q: With G31U A43U as the variant, how does the self-cleavage read?
A: 0.149

Q: Which self-cleavage does the source give for C22G G34C here?
A: 0.0811

Q: For C14G G40A, which self-cleavage is on record?
A: 0.623

Q: For C44A U72A, which self-cleavage is on record?
A: 0.733

Q: Which self-cleavage does the source give for U46A A77U here?
A: 0.115

Q: With C18A C57G as the variant, how does the self-cleavage read?
A: 0.208

Q: Which self-cleavage does the source give for A70G A77C here?
A: 0.178

Q: For G29U G40A, which self-cleavage is on record?
A: 0.0955

Q: For C19U C49A, which self-cleavage is on record?
A: 0.0378

Q: For G39C A42G, which self-cleavage is on record?
A: 0.0811

Q: With C15U U20A as the variant, how does the self-cleavage read?
A: 0.0692

Q: For G1U G67A, which self-cleavage is on record?
A: 0.506

Q: With C32G A70G as the variant, how does the self-cleavage read?
A: 0.0554

Q: For U27C C41A, which self-cleavage is on record?
A: 0.192

Q: With U47C C58G as the variant, how does the self-cleavage read?
A: 0.807

Q: With G68C U79C as the variant, how does the self-cleavage read?
A: 0.302

Q: With G17A U69G as the variant, how does the self-cleavage read?
A: 0.906

Q: Which self-cleavage does the source give for C18U C44G here?
A: 0.142

Q: With C22G G54C as the variant, how does the self-cleavage read?
A: 0.0277

Q: Which self-cleavage does the source give for G29A G74U here?
A: 0.073

Q: Which self-cleavage does the source give for C30U A43G here?
A: 0.0755

Q: With G10U A42U as the variant, how does the self-cleavage read?
A: 0.174

Q: Which self-cleavage does the source give for G35C G81C here?
A: 0.19

Q: Which self-cleavage does the source give for G40U C61A here?
A: 0.632

Q: For U47G C63A, which self-cleavage is on record?
A: 1.06

Q: With C22A C66A as the variant, how does the self-cleavage read?
A: 0.258

Q: For G52C U72A, which self-cleavage is on record?
A: 0.872

Q: For G52C U72G, which self-cleavage is on record?
A: 0.723

Q: Which self-cleavage does the source give for A43U G81U here?
A: 0.16

Q: With C13A G38C as the variant, how does the self-cleavage read?
A: 0.106

Q: With U20A C41U as the variant, how does the self-cleavage read?
A: 0

Q: For U20C U46C, which self-cleavage is on record?
A: 0

Q: For C26U G35U, which self-cleavage is on record?
A: 0.641

Q: With C7G C63G as the variant, how does the self-cleavage read?
A: 0.201

Q: With G6C G29A as the variant, how does the self-cleavage read?
A: 0

Q: For U20A C86U, which self-cleavage is on record?
A: 0.119

Q: With U12C C84U as the variant, how does the self-cleavage read?
A: 0.208

Q: With G1C C13A as the variant, how does the self-cleavage read?
A: 0.0386

Q: With C32U A70U as the variant, how does the self-cleavage read?
A: 0.892

Q: Which self-cleavage does the source give for C30G A77C here?
A: 0.095

Q: For G31A G80A, which self-cleavage is on record?
A: 0.103

Q: Which self-cleavage does the source give for U46C G74A here?
A: 0.48

Q: Which self-cleavage does the source give for U79C G81A here?
A: 0.208

Q: For C22A C84A, which self-cleavage is on record?
A: 0.0707

Q: Which self-cleavage does the source give for C32G G55A here?
A: 0.0841

Q: For C62A A78C, which self-cleavage is on record?
A: 0.101

Q: Which self-cleavage does the source give for C14G C33G here?
A: 0

Q: With G5U A70U as the variant, how does the self-cleavage read?
A: 0.222

Q: Which self-cleavage does the source give for C15A A78G here?
A: 0.447

Q: Which self-cleavage does the source give for G11C A78C here?
A: 0.0369

Q: For C15U C86G, which self-cleavage is on record?
A: 0.91

Q: Which self-cleavage does the source give for C15G G55C here?
A: 0.582

Q: With C21G A78C as the variant, how does the self-cleavage read?
A: 0.0462

Q: With G31C A51U as the variant, how does the self-cleavage read?
A: 0.212

Q: With C18U C86A as the variant, how does the self-cleavage read?
A: 0.82

Q: For A8G A42G, which self-cleavage is on record?
A: 0.68

Q: For G11A C18A, which self-cleavage is on record?
A: 0.0841

Q: Which self-cleavage does the source give for U69A U79G here?
A: 0.831

Q: With U65C G81A as the variant, how does the self-cleavage read?
A: 0.358

Q: For C26A G31U, which self-cleavage is on record?
A: 0.425

Q: With C22G G68U as the variant, how does the self-cleavage read?
A: 0.0583

Q: Which self-cleavage does the source give for C13G C18A here?
A: 0.0831

Q: With U47G G82A as the variant, how does the self-cleavage read?
A: 0.59

Q: Which self-cleavage does the source give for G31A C86G here?
A: 0.573

Q: With G31A A78U as the variant, how does the self-cleavage read?
A: 0.175

Q: For U60A C61A, which self-cleavage is on record?
A: 0.742

Q: With G10A A51G as the variant, how does the self-cleavage read?
A: 0.546

Q: For C26U G81C, which self-cleavage is on record?
A: 0.748

Q: Which self-cleavage does the source give for A43G C64U here?
A: 0.657

Q: For G1C C61G, which self-cleavage is on record?
A: 0.0504

Q: For G55A A56U, which self-cleavage is on record?
A: 0.926

Q: Which self-cleavage does the source give for U37A G67U here?
A: 0.272

Q: Which self-cleavage does the source give for C49G C58U here?
A: 1.05

Q: With C32U G54C as the variant, how does the self-cleavage read?
A: 0.992

Q: Which self-cleavage does the source give for U37A G73C here?
A: 0.0378

Q: Which self-cleavage does the source give for U20A G25A here?
A: 0.0852

Q: Which self-cleavage does the source give for G31A G74A here?
A: 0.132

Q: For G5A U72G, which self-cleavage is on record?
A: 0.147

Q: Which self-cleavage does the source give for A71U A83C here?
A: 0.391

Q: With U20C U27C as the variant, how does the self-cleavage read?
A: 0

Q: For C4G U27C, which self-cleavage is on record?
A: 0.0437

Q: For C36U A78C, which self-cleavage is on record?
A: 0.173

Q: With G50C C75G as the variant, how does the self-cleavage read?
A: 0

Q: With G5A G35C as the variant, how does the self-cleavage read?
A: 0.119

Q: With G25A C41A as the variant, how does the self-cleavage read?
A: 0.212

Q: Which self-cleavage does the source give for C4U C63G here?
A: 0.396

Q: With G35U C62U as the variant, how does the self-cleavage read?
A: 0.486

Q: For C21U A43G, which self-cleavage is on record?
A: 0.0898

Q: With C14A A42C as the variant, how does the self-cleavage read?
A: 0.0369

Q: For U47G G55A, which self-cleavage is on record?
A: 0.939

Q: Which self-cleavage does the source give for C30U G54C here?
A: 0.533

Q: Which self-cleavage does the source give for G67A G76C here?
A: 0.926

Q: With C7G G67U as the variant, how does the self-cleavage read?
A: 0.302

Q: With A43C A71G as the variant, how does the self-cleavage read?
A: 0.762

Q: With U20A C30A as the variant, how does the self-cleavage read?
A: 0.0739

Q: With G38U U79G as the variant, how does the self-cleavage read?
A: 0.208

Q: Which self-cleavage does the source give for U46A G67C here?
A: 0.76

Q: With C15G C30U as the variant, how does the self-cleavage read?
A: 0.145

Q: With G10A G39U as the variant, how does the self-cleavage read?
A: 0.293

Q: With C26G G53A as the variant, how does the self-cleavage read?
A: 1.02

Q: With G40C G76U as the variant, how does the self-cleavage read?
A: 0.346

Q: For A56C U69C, which self-cleavage is on record?
A: 1.09

Q: For G29C A43U, which self-cleavage is on record?
A: 0.0519

Q: With G39U G54U as the variant, how does the self-cleavage read?
A: 0.722

Q: Which self-cleavage does the source give for G31A G55U here?
A: 0.347

Q: For A16G C62A, which self-cleavage is on record?
A: 0.877

Q: With G25U G68U as the variant, how does the self-cleavage read?
A: 0.225

Q: For U9A C30A, which self-cleavage is on record?
A: 0.732

Q: With A16U C61G as the variant, how does the self-cleavage read?
A: 0.712

Q: Which self-cleavage does the source give for U47A A83U here?
A: 0.287

Q: With A45U A77U as the variant, how does the self-cleavage read?
A: 0.322

Q: With C21U G52A as the variant, how does the self-cleavage read?
A: 0.24

Q: For C32U A87U, which self-cleavage is on record?
A: 1.03

Q: For C41A G68U, which self-cleavage is on record?
A: 0.561

Q: Which self-cleavage does the source give for G38U C75G here?
A: 0.0707

Q: Which self-cleavage does the source give for G2A G6U here?
A: 0.0683

Q: Which self-cleavage does the source give for A8G C49G here?
A: 1.27

Q: With C13A G67C as the variant, how does the self-cleavage read?
A: 0.259

Q: With A51U A71U as the variant, how does the self-cleavage read?
A: 1.01

Q: With U12A C19G as the variant, how does the self-cleavage read?
A: 0

Q: With C22U A70G as the variant, how does the self-cleavage read?
A: 0.577

Q: Which self-cleavage does the source give for A70U A87U here?
A: 1.2

Q: With C33A C57U as the variant, how does the self-cleavage read?
A: 0.46
